{"source": "paper PMC7192624", "proteins": {"B1": {"name": "Snu114^72-1008 (isolated) (Saccharomyces cerevisiae S288C) (protein)", "chain": "KEVEVLMETKNTQSPQTPLVEPVTERTKLQEHTIFTQLKKNIPKTRYNRDYMLSMANIPERIINVGVIGPLHSGKTSLMDLLVIDSHKRIPDMSKNVELGWKPLRYLDNLKQEIDRGLSIKLNGSTLLCTDLESKSRMINFLDAPGHVNFMDETAVALAASDLVLIVIDVVEGVTFVVEQLIKQSIKNNVAMCFVINKLDRLILDLKLPPMDAYLKLNHIIANINSFTKGNVFSPIDNNIIFASTKLGFTFTIKEFVSYYYAHSIPSSKIDDFTTRLWGSVYYHKGNFRTKPFENVEKYPTFVEFILIPLYKIFSYALSMEKDKLKNLLRSNFRVNLSQEALQYDPQPFLKHVLQLIFRQQTGLVDAITRCYQPFELFDNKTAHLSIPGKSTPEGTLWAHVLKTVDYGGAEWSLVRIYSGLLKRGDTVRILDTSQSESRQKRQLHDISKTETSNEDEDEDDETPSCEVEEIGLLGGRYVYPVHEAHKGQIVLIKGISSAYIKSATLYSVKSKEDMKQLKFFKPLDYITEAVFKIVLQPLLPRELPKLLDALNKISKYYPGVIIKVEESGEHVILGNGELYMDCLLYDLRASYAKIEIKISDPLTVFSESCSNESFASIPVSNSISRLGEENLPGLSISVAAEPMDSKMIQDLSRNTLGKGQNCLDIDGIMDNPRKLSKILRTEYGWDSLASRNVWSFYNGNVLINDTLPDEISPELLSKYKEQIIQGFYWAVKEGPLAEEPIYGVQYKLLSISVPSDVNIDVMKSQIIPLMKKACYVGLLTAIPILLEPIYEVDITVHAPLLPIVEELMKKRRGSRIYKTIKVAGTPLLEVRGQVPVIESAGFETDLRLSTNGLGMCQLYFWHKIWRKVPGDVLDKDAFIPKLKPAPINSLSRDFVMKTRRRKGISTGGFMSNDGPTLEKYISAELYAQLRENGLVP", "notes": "residues 72-1008 (acidic N-terminal region truncated), C-terminal Strep tag (pIDS-C-Strep), synthetic gene, recombinant in insect cells (MultiBac)"}}, "substrate": "Nc1nc2c(ncn2[C@@H]2O[C@H](COP(=O)(O)OP(=O)(O)OP(=O)(O)O)[C@@H](O)[C@H]2O)c(=O)[nH]1", "assay": "purified protein", "format": "biochemical, Saccharomyces cerevisiae", "details": "pH 8.0, 300 mM NaCl, 5 mM MgCl2, 30°C, labelled compound, Snu114 without Prp8"}
{"protein": "B1", "values": [{"measurement": "Km", "result": 578.4, "unit": "µM"}, {"measurement": "kcat", "result": 0.001012, "unit": "s⁻¹"}]}
